Measured values taken from a protein production outcome set (Wang et al. 2014).

Experiment: label from the status in PepcDB records
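Note: failed if final PepcDB status was selected cloned or expressed and not failed if soluble or beyond.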

Sequence | protein production
MKKKLFSPIWLLPIVALALGAWLGIKSIKESGVEIQIHFPSATGIDVGKTLVKYQGLTVGKVKDIGIDDDLKGVNVKVMMDYRAKPFLNKETLFWLVTPKASITGVEGLDALFSGNYIAIQPGKGNAATFFEAERQPPPMQIGSEGVMIELTADKLGSLDVGSPVFFRQIPVGSVVSYRLDGNARVIISAFIQEQYARLVKKNSHFWNVSGVKVDASLAGIKVNTESLASILAGGVSFSSDEKAAAAQNGDSFALYDSETSALGGVEVSLTMNDGNGIDKGTRIVYRGISVGSIQSKNLTTTGVTAIAKFEPEYANLLTSDGRFWLEGADISLSGIKNPERLLTGSVINFLPGTNANTALPSSFALQSSAPDLLQAKKRLLTITSAENMGLTAGAEVRYKQLPIGQVLAVKLTKDLSAVEYQLELQPEFASLVRSDSYFIPESALSVDASIEGVSVKTRDLATLTKGAVSLIPGSNNTPVAANARLSLFSSVEEAKQFFERQQRLYFTLTSQDGADVSQGSPIYYKKMQIGRVESVNWQSKTEDFAIKIAIDKQFQPLMQKPKVFWRNSALDVSASLAGIDVAVAPLQGALKGSISLGLLENPLADPTASLKLYENKQLALAQAQAIRLTLSASAKLAAKAAIRYQGHQVGEVTQVKLNADLNTLSATAYLYGEYADHFSSSDAEYHMVEAQISLAGIKAPETLITGPYIGVLPGKSKQKATQFQAKLVESSYANVAEDALKFTLEDSNLGSMKVGTPIFFRGLKVGQIDGYSLSSQGNSVLMQAHIEPQYRHLVNKTSQFWDASGIKVDVGIFSGAQIEAGSLETLLAGGINVATKETTQANNRLSQGAVITLQHKAQTEWQEWAPAQ | failed
NSSKSLEAELVRDRQELIDARKKELKAYMMMGVTAIKPLYDSDVNGSNKQAAKEILKAMRFESDGYFFAYDSQGINTLHAIKPSLEGKNLYDLKDENGVAVIAGLIDASQKGDGFLYFSWHKPTINAQAPKLGYAEYLQKWDWVLGTGIYIDDIDQQVAMQRELRTQELNQHT | not failed
MSYMGKKKKDCLFHVDGFEEWMDQFCSDSCSNFSFPNQIHIDLCETEQEYILETDVPNVTEQNVVIKKMETGLNICILHKNISLQRNIPLPTTIIYKKMLACLENGFLAIHISKNEVANKHEEKVLFQIEN | failed
MSIMKDPNHSPHSGGMLLGFIGVAIFSQTLPFTRMAVAELDATFVALGRAVIAAALALALLAMRGALASGRRPRGGQWLRLAVTALGVVVGFPVFSSLAMREVPSGHGAIVIGLLPLATAVFAAWFGNERPSLGFWLSALAGSALVVAFALWQGAGGLQHADWYLFLAVVLGALGYAEGGKLSRELGGLETISWALVVSLPVLAPVVAWLGLEHAASIAAASPRAWLGMAYVSVFSMFIGFLFWYAGLAKGGVARVGQIQLLQPFLTLAGGALILAEPLDAATVAFAVAVIAVVALGRRAAVRNTAPAMPLASAAEEAPPILPGRLH | failed
MTFTDALGQAHAPVDTTPRIASLVPSITDLLFSLDLGGQLVARTGFCIHPREAVRAIPKVGGTKTVKLDRLRELAPTHVIVNIDENTRETADKLREFVPHVIVTHPCAPEDNLTLYGLLGGIFRREAQAQRLSEALARELAALRGQVFPLRRVLYAIWQDPWMTVARDTYISRMLALIGCQTWPEDPAPVQCGTGRHGDCARPNRPDTRYPTFRWSDEVVRNIDCVLLSTEPYSFTEAHADALEKQIGKPVYLVDGEMVSWYGSRAIEGVRYLGRLAQALT | failed
MTNDDSLKTYRAKRDFSVTPEPSGVASGKTAIKSTAKVLSFVVQKHWATRLHYDFRLELEGTMKSWAVPKGPSFDPNDKRMAVHVEDHPISYNSFEGEIPSGQYGAGKVIIWDKGTWIPLEDPHKGYRDGKLKFELRGLKLKGHWALVRMRKEENKKQEPWLLIKEKDEYVRSSREYSVVDEMPDSVAELDVPDVPQPSKASATSGSSSPKSSSIFRKGTKTTLPDNARKAELPRTLTPELATLVDEPPVDPEEWIYEIKFDGYRMLSRIEGGEVRLITRNGNDWSHKLPHLIKALGKLKLKSSWLDGEIAVLDENGIPDFQSLQNAFDSAHTESIIYYLFDVPFYEGYDLRDASLVERRALLQKLFEAHAPDEIRFSDVFDVSPAEILDSACRLGLEGVIGKRKTSVYVSRRSQDWIKLKCKNRQEFVIGGYTDPKGTRKGIGSLLLGYYDEDRKLRYAGNVGAGFSDKTLEDLRARLDRIALTDSPFVKANGLDKNAHWVEPRLIAEVSFGEWTRGGHIRHSVFHGLRSDKKADVIVREKPVHPAAKSAPASAIPKSLKVTNPDRVIDPSTGFTKVDLIRYYALVAPLMLPHLARRPVSLVRAPEGVSGELFFQKHWEKENMPGIEQLDPSLDPDHPPLLEVSTAEGLLSAVQMNVIEFHTWNATKNVIGKPDRIAFDLDPGSGVEWALIQESAQLVNVFLRELGLKSFLKTSGGKGLHIVVPIRRLRDWDTVKGFSQAIVQHLAKTIPTRFTAKSGPRNRVGKIFIDYLRNGFGATTVSAWSVRARPGLGVSVPLAWEELSSLKSSTRWSASNIHERLDKGNDPWADYAETNQSIVPAMKKLGFTPSSKA | failed
MKSTLIDNFTLLLWASLMASSFVVSEQLLPYANPIASTALRFILATILMMPFIGRASIKQLNYKILLRYSVISLFLVLFFIGLFEALKTTNAMRTSVIYTLLPLISVVLTYIGLKFVTPNKQIAGFLIGTLGAIWVLVAFTQGKLVLIEWRLGDSIFLVACCCLALHVILIKKWATDVPPMLGAFYIMLLGSLILLPFLIFFGDLNNIAWHEDEFWKVLLYLTLFTTIATFFLQQHLLKKVGPNRLLGFTYLIPSIVLIPQGLANMSQLYSVVPGIMLTFLALYLISPKHQ | failed
EQQGKFDWMLRDLYDGVPGIEMIVVLSADGLRIARYSGDPDAADRVAAACAGLQSLASAVSQEIPTSDGDMKMVLIEMNGGYFYLMAAGPNAYLAVLSDVRCEPGRMGLSMADLVARIGPHLTSPARR | failed
MIEYRIFRFPMYPLLARFFSSHQQALGVLFALLSAIGFSAKAIFIKLAYVEPVDAVTLLALRMVFSVPFFVFAMLHGRAQATPMARHDWLAVLLLGLVGYYLASFLDFLGLQYISAGLERMILFLYPTMVVLISALVFRAAIGRRVWFALLLSYVGIGLVFVHDFHITSDGLFMGSSLVFASALAYAIYLIGAGHTIARIGSMRFTAYAMTVACLACIAQFLLTHPLDDLQQSTRVYGLSIGMALFSTVMPAFALAAAMRRIGSMQTSMIGALGPVATIYLAYVFLAEQLSLTQLAGSGLVLIGVMMISMRKME | failed
MRNETLVSIIVPVYNSAQYLRKCIDSILAQSYTEFELLLINDGSEDHSGLICDDYAQSDNRIQVFHQENAGVSAARNLGLEKHTGEHFLFIDSDDYIQERYLEELMKYASCDFVQCSCCSEPVGNDYLFVDGNFEGSDEIKQCLLKYIYPEFTVPFGRLYKSSIQRKNKLFFDTYLYSGEDTLWVSQYLLCVHSLRVSSYIGYIYVHHVGEHLSQKSISYEHLEYTLHKLLISYSDLEKRYDFDLTGVRYSVIIYFFHRYIVYIANRNYTEIRKELEKSCANPLIKGVFYDKKYLLKGKKMKLFNWLVLHDMYSVLALYVKRWKRYLLEHHHHHH | not failed
MKITWFGHACFALEMEGKTIVTDPFDESVGYPIPNVTADVVTESHQHFDHNAHHLVKGNFRVIDRPGAYTVNGVKIKGVETFHDPSHGRERGKNIVFVFEGEGIKVCHLGDLGHVLTPAQVEEIGEIDVLLVPVGGTYTIGPKEAKEVADLLNAKVIIPMHYKTKYLKFNLLPVDDFLKLFDSYERVGNILELFEKPKERKVVVMEVQ | not failed
MKKTLSVLVISSLLFGANVQAAALNAAQEKEVRALVRDTLVSNPEILEEAIMALQTKKADEQQAQFRQALASEHDALYNDAASPRIGAKDAKLVLVSFTDYNCPYCKRFDPLLEKITEQYPDVAVIIKPLPFKGESSAKASQAVLSVWKEDPKAFLALHQRLMQKKTMLDNASIEDAMKSTNTSKIKLTDDSLKTLQNNLELSRKLGIQGTPATVIGDTILPGAVDYDQLEIIVKEQLAKVKK | failed
MAQTQLPHDAKAGPTKPEVRAVVRSKLALTDDDHFVEVGSCTGAVTIAAARDAGRVTALERKADRLETTRKNLAANGLADAVELRNAEAPAELPADADALFIGGSRNYDAVLDHAAETGVDRIVMNVSRLEVAGAATQAFRDRDILTEVVQFQVSHGYELAGATSFDSENPVYMLVGSASGDTEADR | failed
MAKDTDIRSRMNRIEEIIDQLDADEVSLDEGSELYEEGQELLTEIRERLHEGQGEVIEIK | not failed
MLPDSSVRLNKYISESGICSRREADRYIEQGNVFLNGKRATIGDQVKPGDVVKVNGQLIEPREAEDLVLIALNKPVGIVSTTEDGERDNIVDFVNHSKRVFPIGRLDKDSQGLIFLTNHGDLVNKILRAGNDHEKEYLVTVDKPITDEFIRGMGAGVPILGTVTKKCKVKKEAPFVFRITLVQGLNRQIRRMCEHFGYEVKKLERTRIMNVSLSGIPLGEWRDLTDDELIDLFKLIENSSSEAKPKAKAKPKTAGIKRPVVKMEKTAEKGGRPASNGKRFTSPGRKKKGR | not failed
MPVKLATALSNNLFPALDSQLRAGRHIGIEELENHVFLMDFQEVLEEFYSRYNVELIRAPEGFFYLRPRSTTLIPRSVLSELDMMVGKILCYLYLSPERLAHEGIFSQQELYEELLSLADESKLLKLVNQRSTGSDLDRQKLQEKVRTSLNRLRRLGMIYFMGNDSSKFRITESVFRFGADVRSGDDAREAQLRMIRDGEAMPVEGSLSLKDDSDDNDRTDDTAPETGEDELEHHHHHH | failed
MKQGPSSEDDCFSLLKQFEHVLESDPLIDEVGFIHPSQFTMLDKEAGFSNEFQPNNGTSSKFWNQDHKLGISTDILVQLCKDAKHVFLLALQEYKSHGNACDESQIKNISCSPCIPESDVMKHSQSVLLLSSDFGTAWNARKLILSKKDHLSAFTEELRLSGLILSNSPKSESTWSHRRWIIKMISQSFSTLQEIITKESELVESIGERSKMNYRAWYHRCWLVSYMTIEQVIQELNKSKRWAGLHVADSSCFHYRRVRAAYSVDVIVRLMLKILESLYVKGSSAYDKTEARKIWKEELDWNEELVERYVGREALWLHRRFLSLNWIMYFACNHSDASPETGESIIMNEEIAIFIDNEIRLLDSSMTVPDTKFEDFQAQALHAAVYTLWLTKSIPVLWRMLEEKLGTEKVKCVLNTIAQERPSLLHHLVNV | failed
MPYLPEVIIILVLIALNGIFAMSEFALVSAKKIRLRQKAEKGDAGAETALKLSNEPTAFLSTVQIGITLVGIFAGAFGGATIAGELDTYLRDFPALARYSATLSITLVVLIITYLTLILGELVPKQLALNNAETIASRVAKPMFFLSLMARPLVLVLSYSTDAVLRLLRVRKIIGPPVTEEEIKIMIEEGTEAGVFERAEMSMIEGVFDIGDRRVESLMTHRSDIIALDLDDPVDENLKKMIASGRSNFPVYERDLDDVIGIVSVKDVLAKLVESGKVDIRASVTKPLFAPEAITILKLLESFKETGMHIALITDEYGSVQGIITLHDILEAIVGDVRSLGEPEEEQITVLENGSWLIDGDTPVNKLKYVLSVDSFPGEEQGYYLTIAGLIMYILQRIPKTGDHMEFNGLRYEVVDMDGIRIDKVMVTKVPEISKD | not failed
MVERVASSEVANRLNEWYDTIKRQDIKKAAILKHDLQKAMDDMEEDQNVLLYYNLIDSRYKLLLEQYDESGTILESLKDQTERADTDNLLQYYYYFFSGLYEFNMNNFTHAIRLYHKAENHLTTIPDEIEHAEFHFQLAVAYQSIDQSFFSINHAEKALDIYLKQENYVSRIALTQMIIAANKLDLNQYLAAEKLYKKAILIAVDSNQTFIELLGYYNLGLCYEVQEKLEQARDCFEKALDFNFPQENKKETYLRIKYMLARVLFKMGFLQEGVKWFEDAVQLANETNDKIYQVKLQIIHAVYFDQKELSIDEGLKVLKEQSLWHDVEDLSFIAARFYKKEGFYQLASKYYEEGLNAQQKIPSLYEEVGSA | failed
MTASPIVVFDLDGTLIDTAPDLINALNFILVREGMPAVPMAVARNMIGQGARRLLERGLELDGRVIAQDDVNRLTVDFIDYYAAHIADESRPFEGLEATLDELSESGYRFAVCTNKLEWLSKLLLDRLGLSPRFAAICGADTFGVAKPDPAILRETVAKAGGDLSAAIMVGDAGPDVGVARRAGVPVIGVEFGYTEVPIAELQPDLLVGHMRELPNAVGRLLPR | not failed
